Source: publication PMC9964254, “Caspase Inhibition Modulates Monocyte-Derived Macrophage Polarization in Damaged Tissues” (International Journal of Molecular Sciences, 2023)

Target: T1, p47^PHOX (83-390) (UniProt P14598 83-390)
T1 construct: p47^PHOX residues 83-390 (the first 82 amino acids deleted from the GST-p47^PHOX construct); Made from the GST-p47^PHOX construct (pGEX-6P-3); also called truncated p47^PHOX; p47^PHOX truncated at position 82; source: E. coli (BL21), purified with glutathione sepharose beads
T1 sequence (looked up): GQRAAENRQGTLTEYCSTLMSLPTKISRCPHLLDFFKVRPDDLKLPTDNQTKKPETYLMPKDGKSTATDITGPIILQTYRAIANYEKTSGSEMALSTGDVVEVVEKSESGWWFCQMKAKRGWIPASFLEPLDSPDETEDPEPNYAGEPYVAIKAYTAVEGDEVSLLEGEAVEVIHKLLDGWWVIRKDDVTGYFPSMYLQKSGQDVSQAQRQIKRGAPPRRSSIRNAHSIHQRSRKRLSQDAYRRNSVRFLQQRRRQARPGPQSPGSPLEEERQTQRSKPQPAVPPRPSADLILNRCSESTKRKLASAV
Assay: pull-down; 214 nM p47^PHOX proteins with 286 nM GST or GST-p22^PHOX (132-195), 30 min at 4 °C in PBS pH 7.4, 0.1% Triton X-100; glutathione sepharose beads 1 h at 4 °C, eluted with 10 mM glutathione, immunoblot with anti-p47^PHOX
Settings: both partners purified

- binding result: binds
B1: GST-p22^PHOX (132-195) (domain or fragment, UniProt P13498 132-195, looked up)
chain: TPIEPKPRERPQIGGTIKQPPSNPPPRPPAEARKKPSEEEAAVAAGGPPGGPQVNPIPVTDEVV
notes: p22^PHOX residues 132-195
